One data set concerns LNCaP cells. The experiment in a line: Cell proliferation assay (BrdU ELISA), R1881-induced proliferation. The format is cell-based, human. The following applies: LNCaP cells infected with lentivirus, 1×10^−9 M R1881, versus miRNA control (FIG. 4e). The protocol:
Experiments were performed as described^2. pLenti6-miRNA-control and pLenti6-miRNA-PKCβI were used to produce recombinant lentiviruses to infect LNCaP cells as described^15. The infected cells were cultured for 72 hours in medium containing 10% double-stripped FCS. 1×10^4 cells were plated in a 96-well plate in the presence or absence of 1×10^−9 M R1881. The cell proliferation Elisa BrdU Colorimetric Assay (Roche) was performed according to the manufacturer's instructions. […] The experiments were performed in hexaplicate.

The subject of another data set is KLK2 and FKBP5 genes. The experiment in a line: Quantitative RT-PCR of androgen-regulated genes in LNCaP cells. Type of data set: cell-based, human. The following applies: miRNA-mediated knockdown (FIG. 3j). Here is the method: Quantitative RT-PCR and statistical analysis were performed as described. The primers for KLK2 and FKBP5 were described previously^6, 11.

B1: 5′-TGCTGTTACGTAGGGATCTGACAGGCGTTTTGGCCACTGACTGACGCCTGTCATCCCTACGTAA-3′ (nucleic acid)
DNA 1: TGCTGTTACGTAGGGATCTGACAGGCGTTTTGGCCACTGACTGACGCCTGTCATCCCTACGTAA
DNA 2: CCTGTTACGTAGGGATGACAGGCGTCAGTCAGTGGCCAAAACGCCTGTCAGATCCCTACGTAAC
modifications: expressed or natural sequence
For B1, the R1881-induced cell proliferation result in the data set on LNCaP cells is on record as “severely reduces”. For the same molecule, in the data set with KLK2 and FKBP5 genes, the “expression of the androgen-regulated KLK2 and FKBP5 genes” value is recorded as “reduces expression”.

The values are drawn from patent US20120329854A1, “Methods and Compounds for the Diagnosis and Treatment for Cancer” (UNIVERSITÄTSKLINIKUM FREIBURG, priority 2009, published 2012).
